In ChEMBL document CHEMBL1135342, “Synthesis and evaluation of thymidine-5'-O-monophosphate analogues as inhibitors of Mycobacterium tuberculosis thymidylate kinase” (Bioorg Med Chem Lett, 2002) one finds Km data, which are given here for one protein.

Substrate in data set [1]: O=c1[nH]c(=O)n([C@H]2C[C@H](O)[C@@H](COP(=O)(O)O)O2)cc1I
The data set can be described thus: (§1) Compound was tested for binding affinity against Mycobacterium tuberculosis thymidine monophosphate kinase.

Substrate in data set [2]: Cc1cn([C@H]2C[C@H](F)[C@@H](COP(=O)(O)O)O2)c(=O)[nH]c1=O
The data set is described as §1.

Substrate in data set [3]: Cc1cn(-c2ccc(COP(=O)(O)O)o2)c(=O)[nH]c1=O
The data set is described as §1.

Substrate in data set [4]: Cc1cn([C@H]2C[C@H](O)[C@@H](COP(=O)(O)O)O2)c(=O)[nH]c1=O
The description is as §1.

Substrate in data set [5]: O=c1[nH]c(=O)n([C@H]2C[C@H](O)[C@@H](COP(=O)(O)O)O2)cc1Br
The data set is described as §1.

Substrate in data set [6]: O=c1[nH]c(=O)n([C@H]2C[C@H](O)[C@@H](COP(=O)(O)O)O2)cc1F
The data set is described as §1.

Substrate in data set [7]: O=c1ccn([C@H]2C[C@H](O)[C@@H](COP(=O)(O)O)O2)c(=O)[nH]1
The data set is described as §1.

B1: Thymidylate kinase (Mycobacterium tuberculosis), P9WKE1 (protein)
chain: MLIAIEGVDGAGKRTLVEKLSGAFRAAGRSVATLAFPRYGQSVAADIAAEALHGEHGDLASSVYAMATLFALDRAGAVHTIQGLCRGYDVVILDRYVASNAAYSAARLHENAAGKAAAWVQRIEFARLGLPKPDWQVLLAVSAELAGERSRGRAQRDPGRARDNYERDAELQQRTGAVYAELAAQGWGGRWLVVGADVDPGRLAATLAPPDVPS
As usually defined, the Km is the concentration of substrate that gives half-maximal velocity. As for B1, the Km came to 140 µM in data set [1]; 30 µM in data set [2]; 140 µM in data set [3]; 4.5 µM in data set [4]; 33 µM in data set [5]; 420 µM in data set [6]. In addition, the Km in data set [7] was determined as 2100 µM.
